Measured values reported in publication PMC10449631 (Nature Chemical Biology, 2023).
“And” between values parts separate entries of the source, which are not always exact repeats. Identical values can stand only once. No end group written: not given here.

What was measured:
[1] = target: T1, PaAP (Pseudomonas aeruginosa, UniProt Q02PA2, A513L/Q514V/S515P); assay: Peptide digestion assay (overnight and time course, LC-MS/MALDI); assay type: biochemical; conditions: for substrate of / degraded by PaAP (words): incubated with PaAP overnight, LC–MS or MALDI; for P0 (parent peptide, LC–MS signal): 500 μM peptide, 1 μM PaAP_T
T1 construct: PaAP (WT, residues 27–536); His6 (TEV cleavable) (N, cleaved yes); made in house; host or cells: E. coli SHuffle T7
T1 sequence (Q02PA2 37-516 A513L/Q514V/S515P): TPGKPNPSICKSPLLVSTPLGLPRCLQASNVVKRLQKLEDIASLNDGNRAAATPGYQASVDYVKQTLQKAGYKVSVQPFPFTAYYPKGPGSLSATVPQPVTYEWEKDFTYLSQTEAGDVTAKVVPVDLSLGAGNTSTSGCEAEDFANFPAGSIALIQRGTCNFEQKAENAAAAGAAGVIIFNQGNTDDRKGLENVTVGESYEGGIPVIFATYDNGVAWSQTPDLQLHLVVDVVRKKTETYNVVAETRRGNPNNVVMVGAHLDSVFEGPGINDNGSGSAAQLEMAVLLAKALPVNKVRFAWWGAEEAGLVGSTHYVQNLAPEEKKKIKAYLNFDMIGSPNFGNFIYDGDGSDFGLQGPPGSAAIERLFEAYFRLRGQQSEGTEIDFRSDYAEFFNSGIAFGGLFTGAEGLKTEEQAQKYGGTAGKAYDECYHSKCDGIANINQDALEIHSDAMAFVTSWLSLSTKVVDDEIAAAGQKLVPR
Protocol: A variety of peptides of varying lengths and compositions were incubated with PaAP at room temperature. Assays were performed by incubating (overnight at room temperature) 500 μM of substrate (peptides) with 1 μM enzyme (PaAP) in reaction buffer (50 mM Tris, pH 8.5, 100 mM NaCl). The reactions were quenched by heating to 100 °C for 10 min followed by centrifugation at 17,000g in a benchtop centrifuge to remove precipitate. Supernatant was collected and samples were analyzed by LC–MS. Initial trial assays were carried out in the presence and absence (control) of enzyme to determine if the substrate was degraded (single or triplicate experiments). Time-course assays were performed on selected peptide substrates in triplicate. A 300 μl reaction (including 500 μM of substrate) was initiated by the addition of 1 μM enzyme. The reaction was incubated at room temperature. The reaction was quenched at set timepoints by the removal of 30 μl aliquots, which were immediately heated to 100 °C for 10 min. The samples were analyzed by LC–MS using a Xevo Q-ToF (Waters) as described below, searching for masses of all peptide breakdown products.
Peptide degradation time courses were fitted to exponential equations as follows:
P0 peptide consumption was fitted to a single exponential equation (equation (2)) with the format2 yt=y0−Plateaue^−kt+Plateau
Time courses for the formation and decay of peptide intermediates were fitted to double exponential equations (equation (3)) and single exponential equations, followed by a linear phase (4)3 yt=y0−Plateau1e^−k1t+y0−Plateau2e^−k2t+Plateau 4 yt=y0−Plateaue^−kt+vt+Plateau where y(t) is the product formed at time t, y0 − Plateau is the amplitude of the exponential phase, k is the observed rate constant for the exponential phase, y0 is the value of y at time 0, Plateau is the value of y after exponential phase, C is the offset and v is the slope of the linear phase.
Peptide samples incubated in the presence and absence of PaAP were initially analyzed by MALDI. The peptide sample (0.5 µl at 10 µM) was spotted along with matrix (0.5 µl 10 mg ml^−1 α-cyano-4-hydroxycinnamic acid in ACN/0.1% TFA (50/50, vol/vol)) on a stainless steel MALDI plate and left to dry. The sample plate was loaded into a Sciex 4800 MALDI mass spectrometer. The laser voltage was adjusted to give a good signal to noise strength, and 50 shots were acquired in a random pattern across the spot and spectra combined. The spectra were externally calibrated with Sciex Pepcal mix (range: 500–4,000 m/z).

[2] = target: T2, PaAP_T (P. aeruginosa aminopeptidase, C-terminal truncated) (Pseudomonas aeruginosa, UniProt Q02PA2); assay: Inhibition of PaAP_T in the Leu-pNA aminopeptidase assay (KI, IC50); assay type: biochemical; conditions: for IC50 plot data (PaAP_T activity at given peptide concentration): (S) = 2 mM, PaAP 100 nM
T2 construct: PaAP (WT, residues 27–536); His6 (TEV cleavable) (N, cleaved yes); made in house; host or cells: E. coli SHuffle T7
T2 sequence (Q02PA2 whole entry, looked up): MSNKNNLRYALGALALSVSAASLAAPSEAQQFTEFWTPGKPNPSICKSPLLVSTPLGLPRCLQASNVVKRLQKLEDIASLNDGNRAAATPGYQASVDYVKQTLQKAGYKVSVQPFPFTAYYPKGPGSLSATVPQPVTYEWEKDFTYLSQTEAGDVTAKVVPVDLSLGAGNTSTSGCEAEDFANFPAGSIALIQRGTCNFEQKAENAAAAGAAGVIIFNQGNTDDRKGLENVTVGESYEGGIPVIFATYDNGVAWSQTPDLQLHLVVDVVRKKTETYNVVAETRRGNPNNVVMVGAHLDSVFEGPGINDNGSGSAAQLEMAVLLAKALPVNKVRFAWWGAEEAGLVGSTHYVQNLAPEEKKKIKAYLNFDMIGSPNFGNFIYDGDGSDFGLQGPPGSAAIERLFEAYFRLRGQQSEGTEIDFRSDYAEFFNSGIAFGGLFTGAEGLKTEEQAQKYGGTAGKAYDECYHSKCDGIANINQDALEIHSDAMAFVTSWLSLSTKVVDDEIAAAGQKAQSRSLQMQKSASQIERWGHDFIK
Protocol: Aminopeptidase activity was determined spectrophotometrically primarily using amino Leu-pNA. Other commercially available pNA substrates (isoleucine, methionine, alanine, valine, proline, arginine, lysine and phenylalanine) were also assayed. Leu-pNA was incubated with enzyme (100 nM) in assay buffer (50 mM Tris, pH 8.5, 200 mM NaCl) at 25 °C. A pNA release caused an absorbance increase at 405 nm, monitored using a BMG Labtech plate reader. […] Data were plotted in GraphPad Prism (version 9) and the Michalis Menten equation was used for fitting.
Inhibition assays were carried out with the following peptides: linear-ERWGHDFIK (PaAP C-terminal residues), cyclic-ERWGHDFIK, N-acetylated and C-amidated ERWGHDFIK. IC50 values were determined by varying peptide concentration at a fixed substrate concentration (fixed at KM, (S) = 2 mM, PaAP concentration was 100 nM). […] KI values were determined by fitting the data to equation (1) (Morrison’s equation):1 v=1−Et+I+KI−Et+I+KI^2−4EtIKI/2Et where v is the velocity, Et is the total enzyme concentration, I is the concentration of inhibitor and KI is the equilibrium dissociation constant for the inhibitor. IC50 values increased when measured at increasing S, consistent with competitive inhibition.

## Ac-ERWGHDFIK: N-terminally acetylated ERWGHDFIK
[1]
  substrate of / degraded by PaAP (words): is not a substrate
[2]; Leu-pNA assay
  IC50 relative to unmodified linear ERWGHDFIK: stronger inhibitor (lower IC50)
[2]; log(I) 0
  IC50 plot data (PaAP_T activity at given peptide concentration): 14.1847 and 14.0241 and 15.9398
[2]; log(I) 0.39794
  IC50 plot data (PaAP_T activity at given peptide concentration): 10.4257 and 10.2008 and 11.7831
[2]; log(I) 0.69897
  IC50 plot data (PaAP_T activity at given peptide concentration): 7.759 and 8.43 and 9.606
[2]; log(I) 1
  IC50 plot data (PaAP_T activity at given peptide concentration): 6.157 and 6.578 and 7.803
[2]; log(I) 1.39794
  IC50 plot data (PaAP_T activity at given peptide concentration): 4.438 and 4.522 and 4.703
[2]; log(I) 1.69897
  IC50 plot data (PaAP_T activity at given peptide concentration): 3.468 and 3.7992 and 3.497
[2]; log(I) 2
  IC50 plot data (PaAP_T activity at given peptide concentration): 2.457 and 2.349 and 2.539
[2]; log(I) 2.39794
  IC50 plot data (PaAP_T activity at given peptide concentration): 1.727 and 1.944 and 1.78
[2]; log(I) -0.30103
  IC50 plot data (PaAP_T activity at given peptide concentration): 21.8755 and 21.5663 and 25.7068
[2]; log(I) -0.60206
  IC50 plot data (PaAP_T activity at given peptide concentration): 31.9277 and 31.253 and 35.5141
[2]; log(I) -1
  IC50 plot data (PaAP_T activity at given peptide concentration): 57.8715 and 59.5181 and 63.1727
[2]; log(I) -1.30103
  IC50 plot data (PaAP_T activity at given peptide concentration): 96.8273 and 103.173

## ERLGHDFIK [… peptide with W replaced by L]
[1]; time 0 minutes
  P0 (parent peptide, LC–MS signal): 242839 and 266621 and 225820
[1]; time 5 minutes
  P0 (parent peptide, LC–MS signal): 120859 and 126339 and 82871.9
[1]; time 10 minutes
  P0 (parent peptide, LC–MS signal): 45005.2 and 53825.2 and 41072.7
[1]; time 30 minutes
  P0 (parent peptide, LC–MS signal): 28627.8 and 28689.7 and 21100.6
[1]; time 60 minutes
  P0 (parent peptide, LC–MS signal): 29596.5 and 28748.7 and 27907.5
[1]; time 90 minutes
  P0 (parent peptide, LC–MS signal): 29084.8 and 28644.1 and 25592.5
[1]; time 120 minutes
  P0 (parent peptide, LC–MS signal): 30548.5 and 27618.8 and 28168.1
[1]; time 180 minutes
  P0 (parent peptide, LC–MS signal): 31516.5 and 29951.1 and 28383.1
[1]; time 1220 minutes
  P0 (parent peptide, LC–MS signal): 25934 and 29596.2 and 25678.6
[1]; time-course assay, LC–MS
  relative rate of degradation by PaAP: degraded at a faster rate than ERWGHDFIK

## ERWGHDFIK (head-to-tail): ERWGHDFIK peptide cyclized head-to-tail (head-to-tail cyclized)
[2]; Leu-pNA assay
  inhibition of PaAP_T: very poor inhibitors
[2]; log(I) 0
  IC50 plot data (PaAP_T activity at given peptide concentration): 101.617 and 102.323 and 98.6769
[2]; log(I) 0.39794
  IC50 plot data (PaAP_T activity at given peptide concentration): 100.735 and 102.44 and 95.9718
[2]; log(I) 0.69897
  IC50 plot data (PaAP_T activity at given peptide concentration): 96.6774 and 96.207 and 104.322
[2]; log(I) 1
  IC50 plot data (PaAP_T activity at given peptide concentration): 101.558 and 102.323 and 97.1479
[2]; log(I) 1.39794
  IC50 plot data (PaAP_T activity at given peptide concentration): 95.7365 and 95.8542 and 103.44
[2]; log(I) 1.69897
  IC50 plot data (PaAP_T activity at given peptide concentration): 85.1514 and 85.6807 and 79.6236
[2]; log(I) 2
  IC50 plot data (PaAP_T activity at given peptide concentration): 68.1564 and 67.5684 and 61.9818
[2]; log(I) 2.39794
  IC50 plot data (PaAP_T activity at given peptide concentration): 37.6478 and 35.5307 and 32.0024
[2]; log(I) -0.30103
  IC50 plot data (PaAP_T activity at given peptide concentration): 93.6783 and 96.7951 and 93.6195
[2]; log(I) -0.60206
  IC50 plot data (PaAP_T activity at given peptide concentration): 99.853 and 100.676 and 98.5004
[2]; log(I) -1
  IC50 plot data (PaAP_T activity at given peptide concentration): 98.7357 and 97.5007 and 102.499
[2]; log(I) -1.30103
  IC50 plot data (PaAP_T activity at given peptide concentration): 86.6216 and 85.5631 and 74.2723

## RYLGYL: casein-derived peptide (UniProt P02662 105-110, looked up, fragment) [reference compound]
[1]
  substrate of / degraded by PaAP (words): capable of processing
